± gives the uncertainty stated by the source.
Assay: self-splicing fitness, log relative to wild type (ln ratio); higher = more splicing; Tetrahymena group I intron in knt gene, E. coli kanamycin selection, DiMSum; sequences stand for … in CUCUCU…GGAGGGAAAAGUUAUCAGGCAUGCACCUGGUAGCUAGUCUUUAAACCAAUAGAUUGCAUCGGUUUAAAAGGCAAGACCGUCAAAUUGCGGGAAAGGGGUCAACAGCCGUUCAGUACCAAGUCUCAGGGGAAACUUUGAGAUGGCCUUGCAAAGGGUAUGGUAAUAAGCUGACGGACAUGGUCCUAACCACGCAGCCAAGUCCUAAGUCAACAGAUCUUCUGUUGAUAUGGAUGCAGUUCACAGACUAAAUGUCGGUCGGGGAAGAUGUAUUCUUCUCAUAAGAUAUAGUCGGACCUCUCCUUAAUGGGAGCUAGCGGAUGAAGUGAUGCAACACUGGAGCCGCUGGGAACUAAUUUGUAUGCGAAAGUAUAUUGAUUAGUUUUGGAGUACUCGUGGUCG
Outline: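 Library with all eight P1ex-region intron nucleotides randomised, intron inside the knt kanamycin-resistance gene on pET-22b(+), in E. coli BL21(DE3). Cells grew overnight at 37°C or 30°C on LB agar with or without 25 μg/mL kanamycin (plus 100 μg/mL carbenicillin, 50 μM IPTG, 0.2% rhamnose), in six replicate transformations. Pooled colonies were amplicon-sequenced on Illumina HiSeq 2500. DiMSum fitness is the error-weighted combination of wild-type-normalised replicate fold changes, kanamycin versus none.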

| Sequence | self-splicing fitness (ln) (30 °C) | self-splicing fitness (ln) (37 °C) |
| --- | --- | --- |
| GGCUAGCAAUAUUACGUCGU | 0.26 ± 0.075 | 0.153 ± 0.092 |
| UAAAAGCAAUAUUACGGGAC | -3.16 ± 0.13 | -2.47 ± 0.19 |
| GGAGAGCAAUAUUACGAACC | -2.16 ± 0.43 |  |
| UGCCAGCAAUAUUACGUACG | -0.444 ± 0.061 | 0.435 ± 0.084 |
| GUCCAGCAAUAUUACGUGCA | -1.55 ± 0.09 | -0.54 ± 0.1 |
| UUAGAGCAAUAUUACGGUCG | -1.64 ± 0.19 | -0.691 ± 0.31 |
| GUACAGCAAUAUUACGCGAU | -4.98 ± 0.46 | -2.71 ± 0.26 |
| AGUAAGCAAUAUUACGAGGU | -2.56 ± 0.18 | -2.89 ± 0.22 |
| GCCUAGCAAUAUUACGCGUU | -0.166 ± 0.068 | 0.243 ± 0.075 |
| AAAUAGCAAUAUUACGGGCA | -1.22 ± 0.11 | -0.312 ± 0.14 |
| UUCUAGCAAUAUUACGCCCA | -1.55 ± 0.16 | -1.37 ± 0.14 |
| AAGCAGCAAUAUUACGAACC | -2.26 ± 0.14 | -0.526 ± 0.15 |
| AUGUAGCAAUAUUACGCCCG | -0.83 ± 0.22 | -0.891 ± 0.33 |
| GUAAAGCAAUAUUACGCUAA | -1.65 ± 0.087 | -0.135 ± 0.11 |
| CUAAAGCAAUAUUACGGUUC | -4.09 ± 0.2 | -2.68 ± 0.18 |
| CUCUAGCAAUAUUACGUGGU | -5.48 ± 0.41 | -3.5 ± 0.22 |
| CACAAGCAAUAUUACGUCGC | -3.09 ± 0.11 | -2.41 ± 0.17 |
| UGUUAGCAAUAUUACGAGAU |  | -2.58 ± 0.44 |
| AGUCAGCAAUAUUACGUUAC | -2.88 ± 0.16 | -2.36 ± 0.21 |
| GCCUAGCAAUAUUACGCUAG |  | -2.47 ± 0.3 |

| Sequence | self-splicing fitness (ln) (30 °C) | self-splicing fitness (ln) (37 °C) |
| --- | --- | --- |
| AUAUAGCAAUAUUACGACAC | -1.5 ± 0.23 | -0.312 ± 0.29 |
| CGGGAGCAAUAUUACGUUUG | -2.75 ± 0.17 | -2.11 ± 0.19 |
| UAUUAGCAAUAUUACGCUAC | -2.5 ± 0.41 | -1.15 ± 0.47 |
| UUCUAGCAAUAUUACGGUAA | -1.17 ± 0.13 | -0.408 ± 0.085 |
| CCCUAGCAAUAUUACGAAGC | -2.97 ± 0.43 | -2.92 ± 0.27 |
| CAUCAGCAAUAUUACGCCAG | -0.613 ± 0.068 | -0.553 ± 0.1 |
| CCAUAGCAAUAUUACGCCCU | -2.8 ± 0.29 | -2.84 ± 0.39 |
| UGAAAGCAAUAUUACGGCAA | -0.125 ± 0.078 | 0.497 ± 0.1 |
| CGCGAGCAAUAUUACGGUGG | -2.1 ± 0.1 | -1.43 ± 0.13 |
| UGUGAGCAAUAUUACGAAGA | -2.48 ± 0.37 |  |
| AUUCAGCAAUAUUACGGUCU | -0.633 ± 0.073 | 0.126 ± 0.093 |
| UAGGAGCAAUAUUACGGUUU | -3.54 ± 0.3 | -3.45 ± 0.39 |
| UGAUAGCAAUAUUACGCCUG | 0.213 ± 0.14 | 0.502 ± 0.2 |
| UCGCAGCAAUAUUACGCGGA |  | -2.29 ± 0.25 |
| GAGGAGCAAUAUUACGGCAC | -2.08 ± 0.19 | -1.64 ± 0.19 |
| ACCAAGCAAUAUUACGACAA | -2.14 ± 0.15 | -1.11 ± 0.12 |
| UUCAAGCAAUAUUACGAAUG | -4.12 ± 0.24 | -2.87 ± 0.27 |
| UUAGAGCAAUAUUACGCGUU | -2.85 ± 0.17 | -1.62 ± 0.17 |
| GCAGAGCAAUAUUACGAACG |  | -1.78 ± 0.43 |

From the supplement of paper PMC7877785
